# Data published in the supplement of paper PMC9170038.
# What was measured:
# [1] = system: K4 kissing-loop RNA reporter; assay: apparent KD of K4 kissing-loop reporter; higher = weaker reporter binding; details: Eterna round: R107;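 further: bound reporter read as fluorescence of individual clusters on recovered sequencing chips by microscopy, with normalized cluster intensities fitted with a binding model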
# Method: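 RNA-MaP round R107: designed RNA switches with theophylline, tryptophan, arginine or FMN aptamers are transcribed on-chip within common flanks. They are titrated with a labelled K4 kissing-loop RNA reporter in RNA-MaP buffer (100 mM Tris pH 7.5, 80 mM KCl, 4 mM MgCl2), without ligand or with the indicated ligand. Median apparent KD per design.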
# MS2 coat protein = assay: apparent KD of MS2 coat protein; designed switch direction (-1 OFF switch, 1 ON switch): -1; higher = weaker reporter binding
# Outline: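 Normalised cluster fluorescence was curve-fitted, and each design's median over clusters is its apparent KD. Before this, SNAP-549-labelled MS2 coat protein was titrated from 0.7 or 1.5 nM, doubling to 3 µM, over RNA switches transcribed on Illumina chips by stalled E. coli RNA polymerase. Titrations had no input, 200 uM small-molecule ligand, or an oligonucleotide input, and steps lasted 0.8–1.5 h (lowest) to 10–20 min (highest).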
# [2] = input ligand: theophylline 20 uM
# [3] = input ligand: tryptophan 2.4 mM
# [4] = input ligand: microRNA oligo, concentration not stated
# [5] = Eterna round: R95, input ligand: microRNA oligo, concentration not stated
# [6] = Eterna round: R95, input ligand: FMN 200 uM
# [7] = Eterna round: R95, input ligand: none
sequence,measurement,setting,value
AAAGGCAAAGCCCGAGUGAUGUUCGACGAUACCAGCCUCGAUAGAGGCCCUUGGCAGCGUAAAUGAUCAUGAAGCCAAGGAAUAA [whbob_Ex_Theo_A_th67],apparent KD of K4 kissing-loop reporter,[1]; input ligand: FMN 200 uM,352 nM
same,apparent KD of K4 kissing-loop reporter,[1]; input ligand: arginine 13.2 mM,302 nM
same,apparent KD of K4 kissing-loop reporter,[1]; input ligand: none,352 nM
same,apparent KD of K4 kissing-loop reporter,[1]; [2],260 nM
same,apparent KD of K4 kissing-loop reporter,[1]; [3],313 nM
AAAGGCAUAGCCCGAGUGAUGUUCGACGAUACCAGCCUCGAUAGAGGCCCUUGGCAGCGUAAAUGAUCAUGAAGCCAAGGAAUAA [whbob_Ex_Theo_A_th68],apparent KD of K4 kissing-loop reporter,[1]; input ligand: FMN 200 uM,340 nM
same,apparent KD of K4 kissing-loop reporter,[1]; input ligand: arginine 13.2 mM,303 nM
same,apparent KD of K4 kissing-loop reporter,[1]; input ligand: none,391 nM
same,apparent KD of K4 kissing-loop reporter,[1]; [2],816 nM
same,apparent KD of K4 kissing-loop reporter,[1]; [3],422 nM
AAAGUGUCAGCACGAGUGAUGUUCGACGAUACCAGCCUCGAUAGAGGCCCUUGGCAGCGUAAAAGUCAAGGGCUGGCACAUAAAA [#SwitchBubble 5 #K4Early],apparent KD of K4 kissing-loop reporter,[1]; input ligand: FMN 200 uM,789 nM
same,apparent KD of K4 kissing-loop reporter,[1]; input ligand: arginine 13.2 mM,751 nM
same,apparent KD of K4 kissing-loop reporter,[1]; input ligand: none,1300 nM
same,apparent KD of K4 kissing-loop reporter,[1]; [2],494 nM
same,apparent KD of K4 kissing-loop reporter,[1]; [3],1440 nM
AAAGUUGAUGAGUUGGGUAUGUGUUCCGAAGGAGCGAGAAUUAUCUCAGGUAGGUCGCGGAAGAUGAGUGAUGUUCAUCUAUAAA [KL-XArg-A8 #analogue],apparent KD of K4 kissing-loop reporter,[1]; input ligand: FMN 200 uM,147 nM
same,apparent KD of K4 kissing-loop reporter,[1]; input ligand: arginine 13.2 mM,137 nM
same,apparent KD of K4 kissing-loop reporter,[1]; input ligand: none,162 nM
same,apparent KD of K4 kissing-loop reporter,[1]; [2],144 nM
same,apparent KD of K4 kissing-loop reporter,[1]; [3],127 nM
"UUUUUACAUGAGGAUCACCCAUGUCAGGAUAUGCUUAUAUUUUAUUAUUUUAUUUUUUGCAGAAGGGACUAUUA [My solution] (Eterna round: R96, puzzle: Exclusion 1)",apparent KD of MS2 coat protein,MS2 coat protein; input ligand: FMN 200 uM,130 nM
same,apparent KD of MS2 coat protein,MS2 coat protein; [4],80.4 nM
same,apparent KD of MS2 coat protein,MS2 coat protein; input ligand: none,118 nM
UUUUUACAUGAGGAUCACCCAUGUCAGGAUAUGCUUAUAUUUUAUUAUUUUAUUUUUUGCAGAAGGGACUAUUA [My solution] (puzzle: Exclusion 1),apparent KD of MS2 coat protein,MS2 coat protein; [5],80 nM
"UUUUUAUAUGAAGGAUAUACUUAACAUGAGGAUCACCCAUGUGGUGUUGUGAGUGAGUGAGUUUAGUAGAAGGUCAAGUACUUU [JMF's solution 37] (Eterna round: R96, puzzle: Exclusion NG 2)",apparent KD of MS2 coat protein,MS2 coat protein; input ligand: FMN 200 uM,614 nM
same,apparent KD of MS2 coat protein,MS2 coat protein; [4],380 nM
same,apparent KD of MS2 coat protein,MS2 coat protein; input ligand: none,574 nM
"UUUUUAUAUGAAGGAUAUACUUAACAUGAGGAUCACCCAUGUGGUGUUGUGAGUGAGUGAGUUUAGUAGAAGGUCAAUUAGUUU [JMF's solution 12] (Eterna round: R96, puzzle: Exclusion NG 2)",apparent KD of MS2 coat protein,MS2 coat protein; input ligand: FMN 200 uM,363 nM
same,apparent KD of MS2 coat protein,MS2 coat protein; [4],157 nM
same,apparent KD of MS2 coat protein,MS2 coat protein; input ligand: none,209 nM
"UUUUUAUAUGAAGGAUAUACUUAACAUGAGGAUCACCCAUGUGGUGUUGUGAGUGAGUGAGUUUAGUAGAAGGUCAAUUAUAUU [JMF's solution 13] (Eterna round: R96, puzzle: Exclusion NG 2)",apparent KD of MS2 coat protein,MS2 coat protein; input ligand: FMN 200 uM,574 nM
same,apparent KD of MS2 coat protein,MS2 coat protein; [4],316 nM
same,apparent KD of MS2 coat protein,MS2 coat protein; input ligand: none,350 nM
"UUUUUAUAUGAAGGAUAUACUUAACAUGAGGAUCACCCAUGUGGUGUUGUGAGUGAGUGAGUUUAGUAGAAGGUCAAUUCUUUG [JMF's solution 84] (Eterna round: R96, puzzle: Exclusion NG 2)",apparent KD of MS2 coat protein,MS2 coat protein; input ligand: FMN 200 uM,397 nM
same,apparent KD of MS2 coat protein,MS2 coat protein; [4],344 nM
same,apparent KD of MS2 coat protein,MS2 coat protein; input ligand: none,347 nM
"UUUUUAUUUUUUUAUUUUGACAUGAGGAUCACCCAUGUCACGAGCAGAUCUUCAUGCAAGCUUUUUGCUCGUCUUAU [Sensor v3 - Turn-off variant 1 - 40] (puzzle: Sensor v3, turn-off variant 1)",apparent KD of MS2 coat protein,MS2 coat protein; [6],58.3 nM
same,apparent KD of MS2 coat protein,MS2 coat protein; [5],141 nM
same,apparent KD of MS2 coat protein,MS2 coat protein; [7],98.4 nM
"UUUUUCAGGCCAGAUCCUCACAUGAGGAUCACCCAUGUGCUCGUCUGUUUUCGCACUAGCUUUUUUUUGGUAGUGCU [Level Boss var2-15] (puzzle: Sensor v3, turn-off variant 1)",apparent KD of MS2 coat protein,MS2 coat protein; [6],280 nM
same,apparent KD of MS2 coat protein,MS2 coat protein; [5],28.4 nM
same,apparent KD of MS2 coat protein,MS2 coat protein; [7],325 nM
"UUUUUCAGGCCAGAUCCUCACAUGAGGAUCACCCAUGUGCUCGUCUGUUUUCGCUCUAGCUUUUUUUUGGUAGUGCU [Level Boss var2-16] (puzzle: Sensor v3, turn-off variant 1)",apparent KD of MS2 coat protein,MS2 coat protein; [6],164 nM
same,apparent KD of MS2 coat protein,MS2 coat protein; [5],31.8 nM
same,apparent KD of MS2 coat protein,MS2 coat protein; [7],243 nM
"UUUUUCGAACAAGCUACGUACAUGAGGAUCACCCAUGUUGGUAGAUUUGAGUAGGUUUGGAUGGAAGCUCGUCUUAU [JR_SV3TOV1_Sub083] (puzzle: Sensor v3, turn-off variant 1)",apparent KD of MS2 coat protein,MS2 coat protein; [6],19.2 nM
same,apparent KD of MS2 coat protein,MS2 coat protein; [5],44.5 nM
same,apparent KD of MS2 coat protein,MS2 coat protein; [7],21.4 nM
"UUUUUCUCAGGAUAUACAUGAGGAUCACCCAUGUAUAUUAAGAAUAAUACAUGGGAAUGUAGAAGGGAGCUCAU [Omei Ex3 Pseudoloop 10] (Eterna round: R97, puzzle: Exclusion 3)",apparent KD of MS2 coat protein,MS2 coat protein; input ligand: FMN 200 uM,101 nM
same,apparent KD of MS2 coat protein,MS2 coat protein; input ligand: none,129 nM
UUUUUGUCAGGAUAUACGUAGUAGAACAAUAGUACUACUACGUAGAAGGGACAUGAGGAUCACCCAUGUUCCUC [Fiskers Ex 4 Super stable 44 mod 16] (puzzle: Exclusion 4),apparent KD of MS2 coat protein,MS2 coat protein; [5],16 nM
UUUUUGUGAGGAUAUCAGUAGUAGAACAAUAGUACUACUACUGAGAAGGUACAUGAGGAUCACCCAUGUUCCUC [Fiskers Ex 4 Super stable 44 mod 13] (puzzle: Exclusion 4),apparent KD of MS2 coat protein,MS2 coat protein; [5],19.5 nM
